# Positions count from the first letter of the chain named. Names may count otherwise.
# T1: EsCas13d, nuclease-dead (Eubacterium siraeum, UniProt B0MS50, R295A;H300A;R849A;H854A)
# T1 sequence: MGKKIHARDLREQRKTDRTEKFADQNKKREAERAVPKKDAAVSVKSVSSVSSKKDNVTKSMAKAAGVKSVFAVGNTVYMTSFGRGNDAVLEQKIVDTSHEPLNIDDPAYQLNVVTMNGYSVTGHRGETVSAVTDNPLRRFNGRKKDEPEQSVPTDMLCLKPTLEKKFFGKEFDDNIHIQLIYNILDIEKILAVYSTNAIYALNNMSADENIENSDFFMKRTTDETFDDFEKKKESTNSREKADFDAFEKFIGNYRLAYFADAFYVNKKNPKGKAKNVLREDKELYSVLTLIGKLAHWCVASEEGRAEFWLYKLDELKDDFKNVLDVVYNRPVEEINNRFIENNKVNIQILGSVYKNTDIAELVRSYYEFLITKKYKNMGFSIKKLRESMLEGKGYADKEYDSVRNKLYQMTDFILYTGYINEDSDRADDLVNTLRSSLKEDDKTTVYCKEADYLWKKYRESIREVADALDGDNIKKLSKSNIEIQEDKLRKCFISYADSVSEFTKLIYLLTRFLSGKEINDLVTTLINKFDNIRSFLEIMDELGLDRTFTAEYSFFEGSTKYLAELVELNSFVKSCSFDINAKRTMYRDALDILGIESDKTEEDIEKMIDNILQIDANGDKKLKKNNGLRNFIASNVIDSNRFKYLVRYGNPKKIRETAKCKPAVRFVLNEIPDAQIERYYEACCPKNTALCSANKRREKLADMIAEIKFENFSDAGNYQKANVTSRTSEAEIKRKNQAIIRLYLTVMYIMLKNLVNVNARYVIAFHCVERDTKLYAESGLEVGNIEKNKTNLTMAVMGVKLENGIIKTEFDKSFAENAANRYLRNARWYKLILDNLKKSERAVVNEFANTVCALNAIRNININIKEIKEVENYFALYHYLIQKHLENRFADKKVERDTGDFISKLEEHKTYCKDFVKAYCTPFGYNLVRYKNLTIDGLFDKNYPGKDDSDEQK
# B1: target 1 C4G,C22G (mixed)
# RNA 1: CACCCGUGCAAAAAUGCAGGGGUCUAAAACUGAGCGGAUAACCUCUCUAUGG
# RNA 2: GGGAAUGGAUCCACAUCUACGAAUUCGUAGCAUAGAGAGGUUAUCCGGUCACCGAGAUCGGAAGAGCACACGU
# B2: target 1 U3A,U19G (mixed)
# RNA 1: B1 RNA 1
# RNA 2: B1 RNA 2 with G30C, U33G, G48C, U49A
# B3: target 1 insA 3' of 22,insG 3' of 4 (mixed)
# RNA 1: B1 RNA 1
# RNA 2: GGGAAUGGAUCCACAUCUACGAAUUCGUACACAUAGAGAGGUUAUCCGCGUCACCGAGAUCGGAAGAGCACACGU
# B4: target 1 insG 3' of 16,insG 3' of 6 (mixed)
# RNA 1: B1 RNA 1
# RNA 2: B3 RNA 2 with A31C, C32A, A33U, U34A, A35G, G36A, A37G, C49G, G50C
# B5: target 1 insC 3' of 13,insC 3' of 3 (mixed)
# RNA 1: B1 RNA 1
# RNA 2: GGGAAUGGAUCCACAUCUACGAAUUCGUACCAUAGAGAGCGUUAUCCGCUCCACCGAGAUCGGAAGAGCACACGU
# B6: target 1 insC 3' of 22,insU 3' of 21 (mixed)
# RNA 1: B1 RNA 1
# RNA 2: GGGAAUGGAUCCACAUCUACGAAUUCGUACCCUAUAGAGAGGUUAUCCGCUCACCGAGAUCGGAAGAGCACACGU
# B7: target 1 insC 3' of 10,insU 3' of 2 (mixed)
# RNA 1: B1 RNA 1
# RNA 2: B5 RNA 2 with C40G, G41U, U43C, C52U
# B8: target 1 insC 3' of 18,insG 3' of 9 (mixed)
# RNA 1: B1 RNA 1
# RNA 2: GGGAAUGGAUCCACAUCUACGAAUUCGUACCAUACGAGAGGUUAGUCCGCUCACCGAGAUCGGAAGAGCACACGU
# B9: target 1 insA 3' of 15,insA 3' of 5 (mixed)
# RNA 1: B1 RNA 1
# RNA 2: B5 RNA 2 with G39A, C40G, C49A, U50C, C51U
# B10: target 1 insG 3' of 16,insU 3' of 5 (mixed)
# RNA 1: B1 RNA 1
# RNA 2: B5 RNA 2 with A38G, G39A, C40G, C49U, U50C, C51U
# B11: target 1 insC 3' of 22,insG 3' of 20 (mixed)
# RNA 1: B1 RNA 1
# RNA 2: B6 RNA 2 with U33A, A34G
# B12: target 1 insU 3' of 22,insG 3' of 3 (mixed)
# RNA 1: B1 RNA 1
# RNA 2: B3 RNA 2 with A31U, G50U, U51G
# B13: target 1 insG 3' of 7,insG 3' of 4 (mixed)
# RNA 1: B1 RNA 1
# RNA 2: B5 RNA 2 with C40G, G41U, U43A, A44U, U45C, C46G, U50G, C51U
# B14: target 1 A1U,C7U (mixed)
# RNA 1: B1 RNA 1
# RNA 2: B1 RNA 2 with G30C, C45U, G48C, A51U
# B15: target 1 insU 3' of 5,insC 3' of 1 (mixed)
# RNA 1: B1 RNA 1
# RNA 2: B5 RNA 2 with C40G, G41U, U43A, A44U, U45C, C47G, G48U, C52A, A53C
# B16: target 1 G13A,G15C (mixed)
# RNA 1: B1 RNA 1
# RNA 2: B1 RNA 2 with G30C, G37C, G39A, G48C
# B17: target 1 insU 3' of 5,insA 3' of 2 (mixed)
# RNA 1: B1 RNA 1
# RNA 2: B5 RNA 2 with C40G, G41U, U43A, A44U, U45C, C47G, G48U, C52A
# B18: target 1 insG 3' of 6,insU 3' of 5 (mixed)
# RNA 1: B1 RNA 1
# RNA 2: B5 RNA 2 with C40G, G41U, U43A, A44U, U45C, C47G, C49U, U50C, C51U
# B19: target 1 C2U,A18U (mixed)
# RNA 1: B1 RNA 1
# RNA 2: B1 RNA 2 with G30C, A34U, G48C, C50U
# B20: target 1 insC 3' of 12,insU 3' of 6 (mixed)
# RNA 1: B1 RNA 1
# RNA 2: B5 RNA 2 with C40G, G41C, G48U, C49G, U50C, C51U
# B21: target 1 A1C,C7U (mixed)
# RNA 1: B1 RNA 1
# RNA 2: B1 RNA 2 with G30C, C45U, G48C, A51C
# B22: target 1 C2A,C22U (mixed)
# RNA 1: B1 RNA 1
# RNA 2: B1 RNA 2 with G30U, G48C, C50A
# B23: target 1 insA 3' of 4,insU 3' of 2 (mixed)
# RNA 1: B1 RNA 1
# RNA 2: B5 RNA 2 with C40G, G41U, U43A, A44U, U45C, C47G, G48C, C49A, C52U
# B24: target 1 A1G,C7U (mixed)
# RNA 1: B1 RNA 1
# RNA 2: B1 RNA 2 with G30C, C45U, G48C, A51G
# B25: target 1 insU 3' of 20,insG 3' of 19 (mixed)
# RNA 1: B1 RNA 1
# RNA 2: B6 RNA 2 with C32A, A34U, U35G
# B26: target 1 insA 3' of 10,insG 3' of 10 (mixed)
# RNA 1: B1 RNA 1
# RNA 2: B6 RNA 2 with C32A, U35G, A40G, G41U, G42U, U43A, U44G
# B27: target 1 insA 3' of 13,insG 3' of 6 (mixed)
# RNA 1: B1 RNA 1
# RNA 2: B5 RNA 2 with C40A, C49G, U50C, C51U
# B28: target 1 insG 3' of 20,insU 3' of 20 (mixed)
# RNA 1: B1 RNA 1
# RNA 2: B6 RNA 2 with C32A, U33G, A34U
# B29: target 1 G5C,A9C (mixed)
# RNA 1: B1 RNA 1
# RNA 2: B1 RNA 2 with G30C, A43C, G47C, G48C
# B30: target 1 complement block 2-13 (mixed)
# RNA 1: B1 RNA 1
# RNA 2: GGGAAUGGAUCCACAUCUACGAAUUCGUACCAUAGAGACCAAUAGGCGAGACCGAGAUCGGAAGAGCACACGU
# B31: target 1 insG 3' of 4 (mixed)
# RNA 1: B1 RNA 1
# RNA 2: GGGAAUGGAUCCACAUCUACGAAUUCGUACCAUAGAGAGGUUAUCCGCGUCACCGAGAUCGGAAGAGCACACGU
# B32: target 1 insG 3' of 2,insG 3' of 1 (mixed)
# RNA 1: B1 RNA 1
# RNA 2: GGGAAUGGAUCCACAUCUACGAAUUCGUACCAUAGAGAGGUUAUCCGCUCGAGCCGAGAUCGGAAGAGCACACGU
# B33: target 1 U10A,A18C (mixed)
# RNA 1: B1 RNA 1
# RNA 2: B1 RNA 2 with G30C, A34C, U42A, G48C
# B34: target 1 insA 3' of 12,insC 3' of 5 (mixed)
# RNA 1: B1 RNA 1
# RNA 2: B5 RNA 2 with C40G, G41A, U50C, C51U
# Target: T1, EsCas13d, nuclease-dead
# Experiment: crRNA (strand 1, pre-loaded); Mg2+; 40 mM Tris-HCl pH 7.5, 150 mM NaCl, 6 mM MgCl2, 1 mM DTT, 0.1% Tween-20, 0.2 mg/ml BSA; 25 C; 10 min per concentration, then washed
# Conditions: tags: His6-TwinStrep-SUMO cleaved; N-terminal SNAP kept (SNAP-Surface 488); label: 3' end held by stalled T7 RNA polymerase
row,Binder,Kd [nM]
1,B1,16.1 ± 2.3
2,B2,50 ± 5
3,B3,9.6 ± 0.6
4,B4,24.3 ± 1.9
5,B5,13.8 ± 0.7
6,B6,17.1 ± 1
7,B7,23.9 ± 2.3
8,B8,59 ± 11
9,B9,15.9 ± 2
10,B10,15.5 ± 1.4
11,B11,23.2 ± 2.3
12,B12,25.3 ± 1.7
13,B13,6.23 ± 0.3
14,B14,9.1 ± 1.3
15,B15,21.6 ± 2.4
16,B16,36 ± 9
17,B17,11 ± 0.5

row,Binder,Kd [nM]
1,B18,5.6 ± 0.6
2,B19,21.2 ± 1.5
3,B20,16.4 ± 0.7
4,B21,9.6 ± 0.9
5,B22,~30
6,B23,9.4 ± 0.9
7,B24,9.2 ± 0.7
8,B25,30.4 ± 1.8
9,B26,12.3 ± 0.6
10,B27,3.93 ± 0.27
11,B28,28.4 ± 1.6
12,B29,16.7 ± 0.8
13,B30,74 ± 11
14,B31,6.65 ± 0.25
15,B32,7 ± 0.6
16,B33,100 ± 17
17,B34,23.6 ± 2.1

# Reference: publication PMC10786891, “Massively parallel profiling of RNA-targeting CRISPR-Cas13d”
